Laboratory results from patent publication US20220259289A1 (Janssen / Centocor, published 2022).
Residue numbers refer to the chain shown, from its start.

B1: ISOP120HR5P1A6 (designed binder, not shown: small tags and cut ends)
chain: LPAPKNLVVSRVTEDSARLSWTAPDGAFDSFEIYYLEGGRGEAIVLTVPGSERSYDLTGLKPGTEYLVTIYGIKCGWASNPLSAIFTT
notes: FN3 domain (Centyrin); tested as E. coli lysate
B2: ISOP120GR5P1H11 (designed binder, not shown: small tags and cut ends)
chain: LPAPKNLVVSRVTEDSARLSWTAPDAAFDSFYIAYWEYWGNGEAIGLIVPGSERSYDLTGLKPGTEYHVHIVGVKGGAGSVPLWANFTT
notes: as for B1
B3: ISOP120HR5P1H7 (designed binder, not shown: small tags and cut ends)
chain: LPAPKNLVVSRVTEDSARLSWTAPDAAFDSFDIYYGEPGNLGEAIVLTVPGSERSYDLTGLKPGTEYLVTIYGVKGGDYSSPLSAIFTT
notes: as for B1
B4: ISOP120ER5P1A8 (designed binder, not shown: small tags and cut ends)
chain: B3 chain with G36F, P38H, G39P, N40V, L41G, D78Y, Y79L, S81M
notes: as for B1
B5: ISOP120ER5P1A11 (designed binder, not shown: small tags and cut ends)
chain: B3 chain with D32E, G36K, P38L, G39R, N40A, L41E, D78S, Y79V, S81I
notes: as for B1
B6: ISOP120ER5P1B4 (designed binder, not shown: small tags and cut ends)
chain: B3 chain with D32S, Y34L, G39P, N40A, L68W, D78V, Y79F, S81H
notes: as for B1
B7: ISOP120ER5P1B6 (designed binder, not shown: small tags and cut ends)
chain: B3 chain with P38H, G39W, N40K, P50Q, D78Q, Y79W, S81F
notes: as for B1
B8: ISOP120AR5P1D2 (designed binder, not shown: small tags and cut ends)
chain: LPAPKNLVVSRVTEDSARLSWDFAYFKFDSFLIQYQESEKVGEAIVLTVPGSERSYDLTGLKPGTEYTVSIYGVGRFYTVYYSNPLSAIFTT
notes: as for B1
B9: ISOP120AR5P1C4 (designed binder, not shown: small tags and cut ends)
chain: B8 chain with D22A, A24Q, Y25W, F26H, K27I, R76Q, F77P, Y82D
notes: as for B1
B10: ISOP120AR5P1C5 (designed binder, not shown: small tags and cut ends)
chain: B8 chain with D22T, F23L, A24P, Y25N, F26I, K27H, F77H, Y82D
notes: as for B1
B11: ISOP120GR5P1A11 (designed binder, not shown: small tags and cut ends)
chain: LPAPKNLVVSRVTEDSARLSWTAPDAAFDSFGIPYWEWTTEGEAIQLIVPGSERSYDLTGLKPATEYHVHIVGVKGGSFSEPLPADFTT
notes: as for B1
B12: ISOP120GR5P1F5 (designed binder, not shown: small tags and cut ends)
chain: LPAPKNLVVSRVTEDSARLSWTAPDAAFDSFEIDYWEVESEGEAIVLFVPGSERSYDLTGLKPGTEYHVHIVGVKGGTPSYPLWADFTT
notes: as for B1
B13: ISOP120GR5P1E7 (designed binder, not shown: small tags and cut ends)
chain: B12 chain with V46I
notes: as for B1
B14: ISOP120GR5P1H6 (designed binder, not shown: small tags and cut ends)
chain: LPAPKNLVVSRVTEDSARLSWTNEQITKYGFDSFLIQYQESEKVGEAIVLTVPGSERSYDLTGLKPGTEYTVSIYGVGRHYTVYDSNPLSAIFTT
notes: as for B1
B15: ISOP120AR5P1F11 (designed binder, not shown: small tags and cut ends)
chain: B14 chain with G67A
notes: as for B1
B16: ISOP120AR5P1G7 (designed binder, not shown: small tags and cut ends)
chain: B14 chain with T22S, N23Q, E24H, Q25Y, I26L, T27S, K28P, Y29I, G30P
notes: as for B1
B17: ISOP120AR5P1H3 (designed binder, not shown: small tags and cut ends)
chain: B14 chain with T22K, N23W, E24I, Q25S, I26H, T27E, K28P, Y29L, G30E
notes: as for B1
B18: ISOP120GR5P1A10 (designed binder, not shown: small tags and cut ends)
chain: LPAPKNLVVSRVTEDSARLSWTAPDAAFDSFEIPYIEVETIGEAIWLHVPGSERSYDLTGLKPGTEYSVGINGVKGGHTSNPLSARFTT
notes: as for B1
B19: ISOP120GR5P1C10 (designed binder, not shown: small tags and cut ends)
chain: B18 chain with A26G
notes: as for B1
B20: ISOP120GR5P1B11 (designed binder, not shown: small tags and cut ends)
chain: LPAPKNLVVSRVTEDSARLSWTAPDAAFDSFNIKYWEANLYGEAIVLTVPGSERSYGLTGLKPGTEYRVHIRGVKGGINSFPLVAVFTT
notes: as for B1
B21: ISOP193FR9P1E1 (designed binder, not shown: small tags and cut ends)
chain: LPAPKNLVVSRVTEDSARLSWTAPDAAFDSFIIRYLEDISYGEAIVLTVPGSERSYDLTGLKPGTEYHVGIEGVKGGNVSWPLSAIFTT
B22: ISOP193ER9P1H3 (designed binder, not shown: small tags and cut ends)
chain: B21 chain with I32E, R34Y, D38V, I39R, S40N, Y41R, E72A, N78F, V79H, W81F
B23: ISOP193GR9P1G9 (designed binder, not shown: small tags and cut ends)
chain: LPAPKNLVVSRVTEDSARLSWTAPDAAFDSFAIFYHEFANSGEAIDLPVPGSERSYDLTGLKPGTEYDVRIYGVKGGTASIPLDAEFTT
B24: ISOP193ER9P1F11 (designed binder, not shown: small tags and cut ends)
chain: LPAPKNLVVSRVTEDSARLSWTAPDAAFDSFAIQYQEYVAHGEAIVLTVPGSERSYDLTGLKPGTEYHVRISGVKGGGVSWPLSAISTT
B25: ISOP193HR9P1H7 (designed binder, not shown: small tags and cut ends)
chain: LPAPKNLVVSRVTEDSARLSWTAPDAAFDSFEIYYREPHYGGEAIVLTVPGSERSYDLTGLKPGTEYWVTIYGVKVCLGSNPLSAIFTT
B26: ISOP193HR9P1H10 (designed binder, not shown: small tags and cut ends)
chain: B25 chain with E32D, R36Y, P38L, H39R, Y40L, W68L
B27: ISOP193GR9P1B3 (designed binder, not shown: small tags and cut ends)
chain: LPAPKNLVVSRVTEDSARLSWTAPDAAFDSFAIGYVEWTANGEAIVLIVPGSERSYDLTGLKPGTEYVVRIRGGVKGGDSSFPLRADFTT
B28: ISOP193GR9P1E10 (designed binder, not shown: small tags and cut ends)
chain: LPAPKNLVVSRVTEDSARLSWTAPDAAFDSFAISYTESIRQGEAIWLWVPGSERSYDLTGLKPGTEYEVTIGGVKGGIRSYPLWAWFTT
B29: ISOP193GR9P1F6 (designed binder, not shown: small tags and cut ends)
chain: B12 chain
B30: ISOP193GR9P1F7 (designed binder, not shown: small tags and cut ends)
chain: LPAPKNLVVSRVTEDSARLSWTAPDAAFDSFDIPYVEYYPSGEAIVLNVPGSERSYDLTGLKPGTEYGVTIWGIKGGNESVPLTARFTT
B31: ISOP193GR9P1H2 (designed binder, not shown: small tags and cut ends)
chain: B18 chain
B32: ISOP193FR9P1D1 (designed binder, not shown: small tags and cut ends)
chain: LPAPKNLVVSRVTEDSARLSWTAPDAAFDSFFIQYLEDVTNGEAIVLTVPGSERSYDLTGLKPGTEYRVPIAGVKGGRDSQPLSAIFTT

Target: unrelated Fc-fused recombinant protein (negative control)
Experiment: ELISA, bacterial lysate on plate-bound antigen, luminescence

| ELISA Fc Control (RLU) | Binder |
| --- | --- |
| 640 RLU | B1 |
| 640 RLU | B2 |
| 640 RLU | B3 |
| 400 RLU | B4 |
| 320 RLU | B5 |
| 400 RLU | B6 |
| 160 RLU | B7 |
| 640 RLU | B8 |
| 320 RLU | B9 |
| 320 RLU | B10 |
| 480 RLU | B11 |
| 400 RLU | B12 |
| 400 RLU | B13 |
| 400 RLU | B14 |
| 480 RLU | B15 |
| 560 RLU | B16 |
| 400 RLU | B17 |
| 400 RLU | B18 |
| 240 RLU | B19 |
| 320 RLU | B20 |

Target: T1, human serum albumin (human, UniProt P02768 25-609)
T1 construct: Negative control antigen of the screening ELISA; also called HSA
Experiment: as above
Protocol: (§1) Streptavidin-coated Maxisorp plates (Nunc catalog 436110) were blocked for 1 h in Starting Block T20 (Pierce) and then coated with biotinylated CD137 (using same antigen as in panning) or negative controls (an unrelated Fc-fused recombinant protein and human serum albumin) for 1 h. Plates were rinsed with TBST and diluted lysate was applied to plates for 1 h. Following additional rinses, wells were treated with HRP-conjugated anti-Centyrin antibody (PAB25) for 1 h and then assayed with POD (Roche catalog 11582950001).
T1 sequence (P02768 25-609 limits assumed): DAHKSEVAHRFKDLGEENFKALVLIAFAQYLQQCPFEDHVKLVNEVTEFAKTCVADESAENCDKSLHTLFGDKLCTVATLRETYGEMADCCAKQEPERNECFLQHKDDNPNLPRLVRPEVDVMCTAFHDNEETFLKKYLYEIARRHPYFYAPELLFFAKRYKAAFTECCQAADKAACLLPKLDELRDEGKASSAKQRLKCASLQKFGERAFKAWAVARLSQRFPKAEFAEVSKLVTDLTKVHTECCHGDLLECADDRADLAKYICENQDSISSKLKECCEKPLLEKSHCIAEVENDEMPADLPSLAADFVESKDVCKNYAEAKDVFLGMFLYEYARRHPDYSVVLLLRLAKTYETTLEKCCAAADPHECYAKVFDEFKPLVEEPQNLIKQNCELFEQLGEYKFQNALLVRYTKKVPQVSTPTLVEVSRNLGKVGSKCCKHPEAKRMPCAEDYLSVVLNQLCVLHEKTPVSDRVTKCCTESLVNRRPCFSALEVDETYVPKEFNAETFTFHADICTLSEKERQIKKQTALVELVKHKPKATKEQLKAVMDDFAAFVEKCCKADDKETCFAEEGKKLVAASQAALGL

| ELISA HSA (RLU) | Binder |
| --- | --- |
| 400 RLU | B1 |
| 320 RLU | B2 |
| 480 RLU | B3 |
| 320 RLU | B4 |
| 320 RLU | B5 |
| 400 RLU | B6 |
| 400 RLU | B7 |
| 640 RLU | B8 |
| 240 RLU | B9 |
| 160 RLU | B10 |
| 320 RLU | B11 |
| 400 RLU | B12 |
| 480 RLU | B13 |
| 400 RLU | B14 |
| 320 RLU | B15 |
| 480 RLU | B16 |
| 480 RLU | B17 |
| 400 RLU | B18 |
| 480 RLU | B19 |
| 160 RLU | B20 |

Target: T2, recombinant biotinylated human CD137 protein (Fc-fusion protein, R&D Systems 838-4B) (human, UniProt Q07011 24-186, biotinylated (site not stated))
T2 construct: Bought Fc fusion; The ELISA used the same antigen as the panning; also called CD137-Fc; biotinylated CD137; not shown: Fc part of the bought fusion protein
Experiment: as above
Protocol: as §1

| ELISA CD137-Fc (RLU) | Binder |
| --- | --- |
| 1.29e+06 RLU | B1 |
| 1.31e+06 RLU | B2 |
| 1.53e+06 RLU | B3 |
| 1.9e+06 RLU | B4 |
| 1.14e+06 RLU | B5 |
| 499000 RLU | B6 |
| 1.35e+06 RLU | B7 |
| 908000 RLU | B8 |
| 708000 RLU | B9 |
| 425000 RLU | B10 |
| 1.05e+06 RLU | B11 |
| 1.28e+06 RLU | B12 |
| 1.13e+06 RLU | B13 |
| 721000 RLU | B14 |
| 715000 RLU | B15 |
| 568000 RLU | B16 |
| 769000 RLU | B17 |
| 627000 RLU | B18 |
| 502000 RLU | B19 |
| 875000 RLU | B20 |

Target: T3, human serum albumin (human, UniProt P02768 25-609)
T3 construct: Negative control of the ELISA; also called HSA
Experiment: ELISA, negative control HSA
Protocol: as §1
T3 sequence (P02768 25-609 limits assumed): as above

| ELISA HSA (RLU) | Binder |
| --- | --- |
| 880 RLU | B21 |
| 400 RLU | B22 |
| 480 RLU | B23 |
| 400 RLU | B24 |
| 13700 RLU | B25 |
| 10100 RLU | B26 |
| 320 RLU | B27 |
| 480 RLU | B28 |
| 400 RLU | B29 |
| 400 RLU | B30 |
| 640 RLU | B31 |
| 640 RLU | B32 |

Target: T4, recombinant biotinylated CD137 protein (Fc-fusion protein, R&D Systems 838-4B) (human, UniProt Q07011 24-186, biotinylated, sites not stated)
T4 construct: Bought Fc fusion; also called CD137-Fc
Experiment: ELISA, lysate on biotinylated CD137-Fc
Protocol: as §1

| ELISA CD137 (RLU) | Binder |
| --- | --- |
| 1.16e+07 RLU | B21 |
| 1.05e+07 RLU | B22 |
| 3.05e+06 RLU | B23 |
| 1.12e+07 RLU | B24 |
| 4.6e+06 RLU | B25 |
| 1.48e+07 RLU | B26 |
| 3.46e+06 RLU | B27 |
| 1.05e+07 RLU | B28 |
| 9.85e+06 RLU | B29 |
| 3.48e+06 RLU | B30 |
| 5.31e+06 RLU | B31 |
| 8.13e+06 RLU | B32 |

Target: unrelated Fc-fused recombinant protein
Experiment: ELISA, negative control Fc protein

| ELISA Fc Control (RLU) | Binder |
| --- | --- |
| 2000 RLU | B21 |
| 1520 RLU | B22 |
| 960 RLU | B23 |
| 2240 RLU | B24 |
| 49800 RLU | B25 |
| 43900 RLU | B26 |
| 880 RLU | B27 |
| 1360 RLU | B28 |
| 1360 RLU | B29 |
| 880 RLU | B30 |
| 1360 RLU | B31 |
| 1680 RLU | B32 |
